The source of these data is patent publication US20230287125A1 (LEPU BIOPHARMA, published 2023).

The term EC50 denotes the midpoint of the concentration-response curve. Read a high EC50 as weaker potency. One may read the IC50 as the midpoint of a concentration-inhibition curve. A high value points to a need for much substance. For orientation: Kd means the constant that tells how readily two partners part at equilibrium. A word on the koff: it is the first-order rate constant of dissociation. Low values mean slow dissociation, high ones fast dissociation. What is called kon is a measure of how fast the partners come together. The low end stands for slower complex formation, the high end for faster complex formation.

One test concerns the target mouse PD-L1 protein (mouse, UniProt Q9EP73 19-239). In words: ELISA, coated mouse PD-L1. The method, then:
(§1) ELISA testing was carried out to evaluate the binding of chimeric antibodies to human, mouse, rat, and cynomolgus PD-L1, respectively.
(§2) Briefly, microtiter plates were coated with human, mouse, rat and cynomolgus PD-L1 proteins at 0.5 μg/ml in PBS, 100 μl/well at 4° C. overnight, then blocked with 150 μl/well of 1% BSA. Three-fold dilutions of chimeric antibodies starting from 10 μg/ml were added to each well and incubated for 1 hour at 37° C. The plates were washed with PBS/Tween and then incubate with mouse-anti-human IgG Fab antibody conjugated with Horse Radish Peroxidase (HRP) for 30 mins at 37° C. After washing, the plates were developed with TMB substrate and analyzed by spectrophotometer at OD 450 nm.
In general terms: An ELISA detects its analyte on a solid surface through an enzyme-linked reagent.

In test [1] the target is T1, human PD-L1-Fc protein (human, UniProt Q9NZQ7 19-238).
T1 construct: coating antigen of the ELISAs; also called rhPD-L1-Fc; not shown: Fc
T1 sequence (Q9NZQ7 19-238 limits assumed): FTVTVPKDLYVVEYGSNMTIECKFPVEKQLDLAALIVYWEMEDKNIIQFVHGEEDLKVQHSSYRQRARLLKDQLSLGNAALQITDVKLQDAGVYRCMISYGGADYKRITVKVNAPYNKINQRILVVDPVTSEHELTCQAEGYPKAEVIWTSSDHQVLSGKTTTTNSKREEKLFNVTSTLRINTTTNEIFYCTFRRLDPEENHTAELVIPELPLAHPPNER
Put plainly: ELISA, antibody titrated on coated human PD-L1-Fc, OD 450nm; upper right panel (with Hu47C6A3-2). The method, then:
as §2, with “To evaluate antigen binding activity, the humanized antibodies were subjected to ELISA test. Briefly,” for “Briefly,”, “with human PD-L1-Fc protein” for “with human, mouse, rat and cynomolgus PD-L1 proteins”, “with 200” for “with 150”, “of humanized” for “of chimeric”, “then incubated” for “then incubate”, “for 1 hour” for “for 30 mins”

The target in test [2] is T1, human PD-L1-Fc protein. In words: receptor blocking ELISA: coated human PD-L1-Fc, blocked ligand biotin-labeled human PD-1-Fc (Bio-PD1), OD 450nm; upper right panel (with Hu47C6A3-2). The method, then: (§3) Briefly, microtiter plates were coated with human PD-L1-Fc protein at 0.5 μg/ml in PBS, 100 μl/well at 4° C. overnight, then blocked with 150 μl/well of 1% BSA at 37° C. for 2 hours. […] The plates were washed with PBS/Tween and then incubated with Streptavidin-HRP for 10 mins at 37° C. After washing, the plates were developed with TMB substrate and analyzed by spectrophotometer at OD 450 nm.

The target in test [3] is T1, human PD-L1-Fc protein. Put plainly: ELISA, coated human PD-L1 (PD-L1-Fc per paragraph 110). The method, then:
Briefly, microtiter plates were coated with human PD-L1-Fc protein at 0.5 μg/ml in PBS, 100 μl/well at 4° C. overnight, then blocked with 150 μl/well of 1% BSA. […] The plates were washed with PBS/Tween and then incubated with Mouse-anti-human IgG Fab antibody conjugated with Horse Radish Peroxidase (HRP) for 30 mins at 37° C. After washing, the plates were developed with TMB substrate and analyzed by spectrophotometer at OD 450 nm.
as §2

Test [4] addresses T2, human PD-L1 over-expressed on CHOK1 cells (human, UniProt Q9NZQ7 19-290).
T2 construct: whole, on cells; also called PDL1-CHOK1 cells
In words: flow cytometry on PDL1-CHOK1 cells. The method, then:
After washing by PBS, Alexa Fluor® 647 AffiniPure Goat Anti-Human IgG (H+L) was added to each well and incubated at 4° C. for 30 mins. Samples were washed twice with FACS buffer. The mean florescence intensity (MFI) of Alexa Fluor® 647 was evaluated by FACSCanto.

Test [5] has as its target T1, human PD-L1-Fc protein. In words: receptor blocking ELISA: coated human PD-L1-Fc, blocked ligand biotin-labeled human CD80-Fc (Bio-CD80), OD 450nm; upper right panel (with Hu47C6A3-2). The method, then: as §3
The target of test [6] is T2, human PD-L1 over-expressed on CHOK1 …. In words: flow cytometry (MFI) on PDL1-CHOK1 cells; upper left panel (with Hu47C6A3-1 to -3). The method, then: (§4) To evaluate the antigen binding property, the humanized antibodies were analyzed for their binding to PD-L1 overexpressed on mammalian cells by FACS. Briefly, PDL1-CHOK1 cells were firstly incubated with 3-fold serious diluted humanized antibodies starting at 15 μg/ml at 4° C. for 40 mins. After washed by PBS, the Alexa Fluor® 647 AffiniPure Goat Anti-Human IgG (H+L) antibody was added to each well and incubated at 4° C. for 30 mins. The MFI of Alexa Fluor® 647 was evaluated by FACSCanto.
(In general: In flow cytometry, cells or beads pass a laser one at a time.)

Test [7] has as its target T1, human PD-L1-Fc protein. Put plainly: competition ELISA, coated human PD-L1-Fc, biotin-labeled human PD-1-Fc as competitor. As to the method:
Briefly, microtiter plates were coated with human PD-L1-Fc protein at 0.5 μg/ml in PBS, 100 μl/well at 4° C. overnight, then blocked with 150 μl/well of 1% BSA. […] The plates were washed with PBS/Tween and then incubated with Streptavidin-HRP for 10 mins at 37° C. After washing, the plates were developed with TMB substrate and analyzed by spectrophotometer at OD 450 nm.

Test [8] deals with T1, human PD-L1-Fc protein. In words: receptor blocking ELISA: coated human PD-L1-Fc, blocked ligand biotin-labeled human CD80-Fc (Bio-CD80), OD 450nm; lower left panel (with Hu47C6A3-3). The method, then:
as §3

For test [9], the target named is T1, human PD-L1-Fc protein. In words: ELISA, antibody titrated on coated human PD-L1-Fc, OD 450nm; upper left panel (with Hu47C6A3-1). As to the method:
as §2, with “To evaluate antigen binding activity, the humanized antibodies were subjected to ELISA test. Briefly,” for “Briefly,”, “with human PD-L1-Fc protein” for “with human, mouse, rat and cynomolgus PD-L1 proteins”, “with 200” for “with 150”, “of humanized” for “of chimeric”, “then incubated” for “then incubate”, “for 1 hour” for “for 30 mins”

The target in a further test is cynomolgus PD-L1 protein (cynomolgus, UniProt G7PSE7 19-238). In words: ELISA, coated cynomolgus PD-L1. The method, then: as §1, §2
Sequence of cynomolgus PD-L1 protein (G7PSE7 entry or part of it): as the sequence (Q9NZQ7 19-238 limits assumed) above, with A33T, A34S, S62N, R68Q, Q82R, F173L, T185A, T192I, H215L counted along it
Another test concerns the target rat PD-L1 protein (rat, UniProt D4AE25 19-239). In words: ELISA, coated rat PD-L1. The method, then: as §1, §2
Test [10] addresses T1, human PD-L1-Fc protein. Put plainly: receptor blocking ELISA: coated human PD-L1-Fc, blocked ligand biotin-labeled human CD80-Fc (Bio-CD80), OD 450nm; upper left panel (with Hu47C6A3-1). As to the method:
as §3

For test [11], the target named is T1, human PD-L1-Fc protein. In words: ELISA, antibody titrated on coated human PD-L1-Fc, OD 450nm; lower left panel (with Hu47C6A3-3). As to the method:
as §2, with “To evaluate antigen binding activity, the humanized antibodies were subjected to ELISA test. Briefly,” for “Briefly,”, “with human PD-L1-Fc protein” for “with human, mouse, rat and cynomolgus PD-L1 proteins”, “with 200” for “with 150”, “of humanized” for “of chimeric”, “then incubated” for “then incubate”, “for 1 hour” for “for 30 mins”

The target of test [12] is T3, human PD-L1-his tag protein (human, UniProt Q9NZQ7 19-238).
T3 construct: also called human PD-L1-His protein; recombinant PD-L1 protein; not shown: his tag
T3 sequence (Q9NZQ7 19-238 limits assumed): as the sequence (Q9NZQ7 19-238 limits assumed) above
Put plainly: SPR (Biacore T200), mAb captured on Protein A chip, PD-L1-his injected. The method, then:
A serial dilution of human PD-L1-his tag protein was injected over captured antibody for 2 mins at a flow rate of 30 μl/min. The antigen was allowed to dissociate for 480-1500 s. All the experiment were carried out on a Biacore T200. Data analysis was carried out using Biacore T200 evaluation software.
A general note: SPR reads the build-up and loss of mass on a sensor chip optically.

The target of test [13] is T1, human PD-L1-Fc protein. In words: receptor blocking ELISA: coated human PD-L1-Fc, blocked ligand biotin-labeled human PD-1-Fc (Bio-PD1), OD 450nm; lower left panel (with Hu47C6A3-3). The method, then: as §3
In test [14] the target is T1, human PD-L1-Fc protein. Put plainly: receptor blocking ELISA: coated human PD-L1-Fc, blocked ligand biotin-labeled human PD-1-Fc (Bio-PD1), OD 450nm; middle left panel. As to the method:
as §3

In test [15] the target is T3, human PD-L1-his tag protein. Put plainly: SPR (Biacore), affinity ranking, PDL1-His.
Test [16] concerns the target T1, human PD-L1-Fc protein. Put plainly: receptor blocking ELISA: coated human PD-L1-Fc, blocked ligand biotin-labeled human CD80-Fc (Bio-CD80), OD 450nm; middle left panel. As to the method:
as §3

Test [17] concerns the target T3, human PD-L1-his tag protein. In words: SPR (Biacore T200), mAb captured on Protein A chip, PD-L1-his injected. The method, then: The binding of the humanized antibodies to recombinant PD-L1 protein (human PD-L1-his tag) was tested by Biacore using a capture method. […] A serial dilution of human PD-L1-his tag protein was injected over captured antibody for 2 mins at a flow rate of 30 μl/min. The antigen was allowed to dissociate for 1500 s. All the experiment were carried out on a Biacore T200.
This is another data set of the same source.

Test [18] deals with T2, human PD-L1 over-expressed on CHOK1 …. Put plainly: flow cytometry (MFI) on PDL1-CHOK1 cells; upper right panel. The method, then:
as §4

The target in test [19] is T1, human PD-L1-Fc protein. Put plainly: ELISA, antibody titrated on coated human PD-L1-Fc, OD 450nm; upper left panel. As to the method:
as §2, with “To evaluate antigen binding activity, the humanized antibodies were subjected to ELISA test. Briefly,” for “Briefly,”, “with human PD-L1-Fc protein” for “with human, mouse, rat and cynomolgus PD-L1 proteins”, “with 200” for “with 150”, “of humanized” for “of chimeric”, “then incubated” for “then incubate”, “for 1 hour” for “for 30 mins”

T2 sequence (Q9NZQ7 19-290): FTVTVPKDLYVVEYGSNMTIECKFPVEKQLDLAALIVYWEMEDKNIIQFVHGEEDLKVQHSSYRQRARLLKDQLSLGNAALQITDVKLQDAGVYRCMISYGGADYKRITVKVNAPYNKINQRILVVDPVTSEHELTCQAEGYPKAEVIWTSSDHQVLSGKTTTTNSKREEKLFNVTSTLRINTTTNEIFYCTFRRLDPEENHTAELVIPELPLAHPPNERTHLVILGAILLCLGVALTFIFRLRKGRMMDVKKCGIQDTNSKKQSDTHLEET
Sequence of rat PD-L1 protein (D4AE25 entry or part of it limits assumed): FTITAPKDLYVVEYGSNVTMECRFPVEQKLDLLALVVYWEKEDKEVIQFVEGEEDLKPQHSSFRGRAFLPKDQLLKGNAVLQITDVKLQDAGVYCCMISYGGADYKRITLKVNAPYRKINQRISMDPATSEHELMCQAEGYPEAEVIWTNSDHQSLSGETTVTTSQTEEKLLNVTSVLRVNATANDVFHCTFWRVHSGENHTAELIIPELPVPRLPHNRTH
Sequence of mouse PD-L1 protein (Q9EP73 19-239 limits assumed): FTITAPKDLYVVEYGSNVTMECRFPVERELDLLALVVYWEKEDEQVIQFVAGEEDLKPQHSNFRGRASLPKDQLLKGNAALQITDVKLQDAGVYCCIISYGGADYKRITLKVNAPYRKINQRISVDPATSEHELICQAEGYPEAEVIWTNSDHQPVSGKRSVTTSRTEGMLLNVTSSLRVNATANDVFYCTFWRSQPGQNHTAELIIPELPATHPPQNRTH

B1: 47C6A3 chimeric mAb (antibody, V domains shown)
VH: DVQLQESGPGLVKPSQSLSLTCTVTGYSITSDYAWNWIRQFPGNKLEWMGYIIYSGSTSYNPSLKSRISITRDTSKNQFFLQLNSVTTEDTATYYCARSTMIATNWFAYWGQGTLVTVSA
VL: DIVMTQSHKFMSTSVVDRVSITCKASQDVSLAVAWYQQKPGQSPKLLIYWASTRHTGVPDRFTGSGSGTDFALTISSVQAEDLALYYCQQHYITPWTFGGGTKLEIK
notes: chimeric mAb of the hybridoma clone; also called 47C6A3-chimera
B1: the binding result in the test with mouse PD-L1 protein and with rat PD-L1 protein was “no binding (tested: dilutions starting from 10 µg/ml)” each time. For the same molecule, the EC50 with human PD-L1-Fc protein [1] is 0.0124 µg/mL; with human PD-L1-Fc protein [3], 0.0102 µg/mL; in [4], 0.148 nM; in test [6], 0.113 nM; with human PD-L1-Fc protein [9], 0.0115 µg/mL; with cynomolgus PD-L1 protein, 0.00634 µg/mL. The EC50 with human PD-L1-Fc protein [11] came out at 0.0176 µg/mL. In addition, the half-inhibitory concentration (IC50) with human PD-L1-Fc protein [2] was 0.0857 µg/mL; with human PD-L1-Fc protein [5], 0.395 µg/mL; with human PD-L1-Fc protein [7] it was 0.0912 µg/mL; in the test with human PD-L1-Fc protein [8], 0.439 µg/mL; in the test with human PD-L1-Fc protein [10], 0.436 µg/mL; with human PD-L1-Fc protein [13] it was 0.099 µg/mL. This molecule also registered a dissociation constant (Kd) in test [12] of 0.366 nM. Further, in test [12], the off-rate constant (koff) was found to be 0.000678 s⁻¹. The association rate constant (kon) in test [12] turned out to be 1.85e+06 M⁻¹ s⁻¹.

B2: Hu67F3G7-5 (antibody, V domains shown)
VH: EVQLVQSGAEVKKPGASVKVSCKASGYIFTDFWVSWVRQAPGKGLEWIGEIYPNSGVSRYNEKFKGRVTMTVDKSISTAYMELSRLRSDDTAVYYCTKYFGYTYWFGYWGQGTLVTVSS
VL: DIQMTQSPSSLSASVGDRVTITCRASKSVSTYMHWYQQKPGKAPKLLIYSASHLESGVPSRFSGSGSGTDFTLTISSLQPEDFATYYCQQSNELPVTFGGGTKVEIK
notes: humanized
As for B2, the results for the half-inhibitory concentration (IC50) in the test with human PD-L1-Fc protein [14] and with human PD-L1-Fc protein [16] were 0.127 µg/mL and 0.344 µg/mL, respectively. Further, the equilibrium dissociation constant (Kd) is 0.037 nM in [15] and 0.0431 nM in test [17]. Further, the figures for the off-rate constant (koff) in test [15] and in test [17] were 9.71e-05 s⁻¹ and 7.92e-05 s⁻¹, respectively. Further, the kon in [15] amounted to 2.62e+06 M⁻¹ s⁻¹; in [17] it was 1.84e+06 M⁻¹ s⁻¹. Further, the EC50 in test [18] was 0.115 nM; with human PD-L1-Fc protein [19] it was 0.0133 µg/mL.
